Measured values reported in PMC10786891, “Massively parallel profiling of RNA-targeting CRISPR-Cas13d”.

T1: EsCas13d, nuclease-dead (Eubacterium siraeum, UniProt B0MS50, R295A;H300A;R849A;H854A)
T1 sequence: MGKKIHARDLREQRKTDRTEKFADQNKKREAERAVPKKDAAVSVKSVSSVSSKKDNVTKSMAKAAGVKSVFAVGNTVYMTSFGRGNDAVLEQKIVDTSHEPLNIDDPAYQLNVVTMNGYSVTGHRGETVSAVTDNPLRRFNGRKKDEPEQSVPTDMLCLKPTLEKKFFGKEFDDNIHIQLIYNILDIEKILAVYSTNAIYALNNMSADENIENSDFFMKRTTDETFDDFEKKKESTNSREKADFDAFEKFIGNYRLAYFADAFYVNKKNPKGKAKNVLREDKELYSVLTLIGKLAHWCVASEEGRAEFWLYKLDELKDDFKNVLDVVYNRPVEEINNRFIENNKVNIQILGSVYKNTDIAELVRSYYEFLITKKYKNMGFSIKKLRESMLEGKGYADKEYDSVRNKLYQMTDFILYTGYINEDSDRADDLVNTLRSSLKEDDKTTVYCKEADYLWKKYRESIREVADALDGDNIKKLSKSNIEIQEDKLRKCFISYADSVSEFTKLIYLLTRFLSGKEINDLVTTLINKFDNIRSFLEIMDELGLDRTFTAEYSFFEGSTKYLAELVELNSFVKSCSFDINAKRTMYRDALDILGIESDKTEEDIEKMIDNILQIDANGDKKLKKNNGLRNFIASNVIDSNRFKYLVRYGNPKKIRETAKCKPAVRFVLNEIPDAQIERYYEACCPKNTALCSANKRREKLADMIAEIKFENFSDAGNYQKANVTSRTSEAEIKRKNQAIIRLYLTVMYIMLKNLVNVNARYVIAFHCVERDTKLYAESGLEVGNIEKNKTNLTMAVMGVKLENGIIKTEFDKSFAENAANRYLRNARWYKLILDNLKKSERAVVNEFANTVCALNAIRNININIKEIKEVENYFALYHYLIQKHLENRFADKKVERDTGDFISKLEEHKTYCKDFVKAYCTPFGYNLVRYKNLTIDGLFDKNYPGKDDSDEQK

B1: target 1 insA 3' of 19,insU 3' of 1 (mixed)
RNA 1: CACCCGUGCAAAAAUGCAGGGGUCUAAAACUGAGCGGAUAACCUCUCUAUGG
RNA 2: GGGAAUGGAUCCACAUCUACGAAUUCGUACCAUAAGAGAGGUUAUCCGCUCAUCCGAGAUCGGAAGAGCACACGU
B2: target 1 insG 3' of 8,insG 3' of 7 (mixed)
RNA 1: CACCCGUGCAAAAAUGCAGGGGUCUAAAACUGAGCGGAUAACCUCUCUAUGG
RNA 2: GGGAAUGGAUCCACAUCUACGAAUUCGUACCAUAGAGAGGUUAUGCGCGCUCACCGAGAUCGGAAGAGCACACGU
B3: target 1 U8A,G13A (mixed)
RNA 1: CACCCGUGCAAAAAUGCAGGGGUCUAAAACUGAGCGGAUAACCUCUCUAUGG
RNA 2: GGGAAUGGAUCCACAUCUACGAAUUCGUACCAUAGAGAAGUUAACCGCUCACCGAGAUCGGAAGAGCACACGU
B4: target 1 insG 3' of 16,insA 3' of 13 (mixed)
RNA 1: CACCCGUGCAAAAAUGCAGGGGUCUAAAACUGAGCGGAUAACCUCUCUAUGG
RNA 2: GGGAAUGGAUCCACAUCUACGAAUUCGUACCAUAGAGGAGAGUUAUCCGCUCACCGAGAUCGGAAGAGCACACGU
B5: target 1 insC 3' of 12,insU 3' of 1 (mixed)
RNA 1: CACCCGUGCAAAAAUGCAGGGGUCUAAAACUGAGCGGAUAACCUCUCUAUGG
RNA 2: GGGAAUGGAUCCACAUCUACGAAUUCGUACCAUAGAGAGGCUUAUCCGCUCAUCCGAGAUCGGAAGAGCACACGU
B6: target 1 insC 3' of 12,insG 3' of 1 (mixed)
RNA 1: CACCCGUGCAAAAAUGCAGGGGUCUAAAACUGAGCGGAUAACCUCUCUAUGG
RNA 2: GGGAAUGGAUCCACAUCUACGAAUUCGUACCAUAGAGAGGCUUAUCCGCUCAGCCGAGAUCGGAAGAGCACACGU
B7: target 1 insU 3' of 18,insG 3' of 10 (mixed)
RNA 1: CACCCGUGCAAAAAUGCAGGGGUCUAAAACUGAGCGGAUAACCUCUCUAUGG
RNA 2: GGGAAUGGAUCCACAUCUACGAAUUCGUACCAUAUGAGAGGUUGAUCCGCUCACCGAGAUCGGAAGAGCACACGU
B8: target 1 insG 3' of 22,insC 3' of 3 (mixed)
RNA 1: CACCCGUGCAAAAAUGCAGGGGUCUAAAACUGAGCGGAUAACCUCUCUAUGG
RNA 2: GGGAAUGGAUCCACAUCUACGAAUUCGUACGCAUAGAGAGGUUAUCCGCUCCACCGAGAUCGGAAGAGCACACGU
B9: target 1 insU 3' of 15,insU 3' of 7 (mixed)
RNA 1: CACCCGUGCAAAAAUGCAGGGGUCUAAAACUGAGCGGAUAACCUCUCUAUGG
RNA 2: GGGAAUGGAUCCACAUCUACGAAUUCGUACCAUAGAGUAGGUUAUCUCGCUCACCGAGAUCGGAAGAGCACACGU
B10: target 1 insU 3' of 21,insA 3' of 10 (mixed)
RNA 1: CACCCGUGCAAAAAUGCAGGGGUCUAAAACUGAGCGGAUAACCUCUCUAUGG
RNA 2: GGGAAUGGAUCCACAUCUACGAAUUCGUACCUAUAGAGAGGUUAAUCCGCUCACCGAGAUCGGAAGAGCACACGU
B11: target 1 insU 3' of 20,insC 3' of 17 (mixed)
RNA 1: CACCCGUGCAAAAAUGCAGGGGUCUAAAACUGAGCGGAUAACCUCUCUAUGG
RNA 2: GGGAAUGGAUCCACAUCUACGAAUUCGUACCAUUAGCAGAGGUUAUCCGCUCACCGAGAUCGGAAGAGCACACGU
B12: target 1 insC 3' of 9,insG 3' of 8 (mixed)
RNA 1: CACCCGUGCAAAAAUGCAGGGGUCUAAAACUGAGCGGAUAACCUCUCUAUGG
RNA 2: GGGAAUGGAUCCACAUCUACGAAUUCGUACCAUAGAGAGGUUACUGCCGCUCACCGAGAUCGGAAGAGCACACGU
B13: target 1 insC 3' of 13,insG 3' of 6 (mixed)
RNA 1: CACCCGUGCAAAAAUGCAGGGGUCUAAAACUGAGCGGAUAACCUCUCUAUGG
RNA 2: GGGAAUGGAUCCACAUCUACGAAUUCGUACCAUAGAGAGCGUUAUCCGGCUCACCGAGAUCGGAAGAGCACACGU
B14: target 1 insA 3' of 17,insA 3' of 7 (mixed)
RNA 1: CACCCGUGCAAAAAUGCAGGGGUCUAAAACUGAGCGGAUAACCUCUCUAUGG
RNA 2: GGGAAUGGAUCCACAUCUACGAAUUCGUACCAUAGAAGAGGUUAUCACGCUCACCGAGAUCGGAAGAGCACACGU
B15: target 1 del1,del5 (mixed)
RNA 1: CACCCGUGCAAAAAUGCAGGGGUCUAAAACUGAGCGGAUAACCUCUCUAUGG
RNA 2: GGGAAUGGAUCCACAUCUACGAAUUCGUACCAUAGAGAGGUUAUCCCUCCCGAGAUCGGAAGAGCACACGU
B16: target 1 A9U,C21A (mixed)
RNA 1: CACCCGUGCAAAAAUGCAGGGGUCUAAAACUGAGCGGAUAACCUCUCUAUGG
RNA 2: GGGAAUGGAUCCACAUCUACGAAUUCGUACAAUAGAGAGGUUUUCCGCUCACCGAGAUCGGAAGAGCACACGU
B17: target 1 insA 3' of 13,insU 3' of 9 (mixed)
RNA 1: CACCCGUGCAAAAAUGCAGGGGUCUAAAACUGAGCGGAUAACCUCUCUAUGG
RNA 2: GGGAAUGGAUCCACAUCUACGAAUUCGUACCAUAGAGAGAGUUAUUCCGCUCACCGAGAUCGGAAGAGCACACGU
B18: target 1 insC 3' of 12,insA 3' of 2 (mixed)
RNA 1: CACCCGUGCAAAAAUGCAGGGGUCUAAAACUGAGCGGAUAACCUCUCUAUGG
RNA 2: GGGAAUGGAUCCACAUCUACGAAUUCGUACCAUAGAGAGGCUUAUCCGCUCAACCGAGAUCGGAAGAGCACACGU
B19: target 1 insU 3' of 18,insA 3' of 7 (mixed)
RNA 1: CACCCGUGCAAAAAUGCAGGGGUCUAAAACUGAGCGGAUAACCUCUCUAUGG
RNA 2: GGGAAUGGAUCCACAUCUACGAAUUCGUACCAUAUGAGAGGUUAUCACGCUCACCGAGAUCGGAAGAGCACACGU
B20: target 1 insA 3' of 22 (mixed)
RNA 1: CACCCGUGCAAAAAUGCAGGGGUCUAAAACUGAGCGGAUAACCUCUCUAUGG
RNA 2: GGGAAUGGAUCCACAUCUACGAAUUCGUACACAUAGAGAGGUUAUCCGCUCACCGAGAUCGGAAGAGCACACGU
B21: target 1 U11A,A18G (mixed)
RNA 1: CACCCGUGCAAAAAUGCAGGGGUCUAAAACUGAGCGGAUAACCUCUCUAUGG
RNA 2: GGGAAUGGAUCCACAUCUACGAAUUCGUACCAUGGAGAGGAUAUCCGCUCACCGAGAUCGGAAGAGCACACGU
B22: target 1 A14G,C22A (mixed)
RNA 1: CACCCGUGCAAAAAUGCAGGGGUCUAAAACUGAGCGGAUAACCUCUCUAUGG
RNA 2: GGGAAUGGAUCCACAUCUACGAAUUCGUAACAUAGAGGGGUUAUCCGCUCACCGAGAUCGGAAGAGCACACGU
B23: target 1 insC 3' of 11,insA 3' of 6 (mixed)
RNA 1: CACCCGUGCAAAAAUGCAGGGGUCUAAAACUGAGCGGAUAACCUCUCUAUGG
RNA 2: GGGAAUGGAUCCACAUCUACGAAUUCGUACCAUAGAGAGGUCUAUCCAGCUCACCGAGAUCGGAAGAGCACACGU
B24: target 1 U8C,G17U (mixed)
RNA 1: CACCCGUGCAAAAAUGCAGGGGUCUAAAACUGAGCGGAUAACCUCUCUAUGG
RNA 2: GGGAAUGGAUCCACAUCUACGAAUUCGUACCAUAUAGAGGUUACCCGCUCACCGAGAUCGGAAGAGCACACGU
B25: target 1 insU 3' of 15,insC 3' of 9 (mixed)
RNA 1: CACCCGUGCAAAAAUGCAGGGGUCUAAAACUGAGCGGAUAACCUCUCUAUGG
RNA 2: GGGAAUGGAUCCACAUCUACGAAUUCGUACCAUAGAGUAGGUUACUCCGCUCACCGAGAUCGGAAGAGCACACGU
B26: target 1 C4G,U19G (mixed)
RNA 1: CACCCGUGCAAAAAUGCAGGGGUCUAAAACUGAGCGGAUAACCUCUCUAUGG
RNA 2: GGGAAUGGAUCCACAUCUACGAAUUCGUACCAGAGAGAGGUUAUCCGGUCACCGAGAUCGGAAGAGCACACGU
B27: target 1 U3A,A16C (mixed)
RNA 1: CACCCGUGCAAAAAUGCAGGGGUCUAAAACUGAGCGGAUAACCUCUCUAUGG
RNA 2: GGGAAUGGAUCCACAUCUACGAAUUCGUACCAUAGCGAGGUUAUCCGCACACCGAGAUCGGAAGAGCACACGU
B28: target 1 insC 3' of 22,insG 3' of 2 (mixed)
RNA 1: CACCCGUGCAAAAAUGCAGGGGUCUAAAACUGAGCGGAUAACCUCUCUAUGG
RNA 2: GGGAAUGGAUCCACAUCUACGAAUUCGUACCCAUAGAGAGGUUAUCCGCUCGACCGAGAUCGGAAGAGCACACGU

The binders below were run against T1, EsCas13d, nuclease-dead (assay: crRNA (strand 1, pre-loaded); Mg2+; 40 mM Tris-HCl pH 7.5, 150 mM NaCl, 6 mM MgCl2, 1 mM DTT, 0.1% Tween-20, 0.2 mg/ml BSA; 25 C; 10 min per concentration, then washed). Conditions: tags: His6-TwinStrep-SUMO cleaved; N-terminal SNAP kept (SNAP-Surface 488); label: 3' end held by stalled T7 RNA polymerase.
For B1, the Kd was 20 ± 1.7 nM. B2 was tested, and the Kd was 8.24 ± 0.23 nM. In the case of B3, the Kd is reported as 15 ± 0.7 nM. B4 showed a Kd of 16.1 ± 1.5 nM. With B5 the Kd was 12 ± 1.1 nM. B6 gave a Kd of 8.5 ± 1.2 nM. For B7, the Kd was 68 ± 22 nM. B8 showed a Kd of 31.2 ± 3.4 nM. In the case of B9, the Kd is reported as 8.47 ± 0.27 nM. With B10 the Kd was 39.2 ± 2.4 nM. For B11, the Kd was 44 ± 8 nM. Work on B12 yielded a Kd of 11.1 ± 0.4 nM. B13 showed a Kd of 14.6 ± 1.6 nM. For B14, the Kd was 10.4 ± 0.5 nM. For B15, the Kd was 20.4 ± 1.2 nM. Binder B16 has a Kd of 35.8 ± 2.3 nM. In the case of B17, the Kd is reported as 4.6 ± 0.5 nM. B18 gave a Kd of 9.9 ± 1.1 nM. For B19, the Kd was 23.6 ± 2.6 nM. B20 was tested, and the Kd was 14.8 ± 1.1 nM. In the case of B21, the Kd is reported as 80 ± 40 nM. B22 gave a Kd of 40 ± 4 nM. B23 was tested, and the Kd was 47 ± 14 nM. B24 was tested, and the Kd was 41 ± 4 nM. B25 gave a Kd of 67 ± 7 nM. Binder B26 has a Kd of 100 ± 50 nM. Work on B27 yielded a Kd of 76 ± 7 nM. B28 showed a Kd of 21.1 ± 3.2 nM.
